Experimental data as given in IntAct's records for PubMed 35512704.

B1: Mothers against decapentaplegic homolog 4 (Homo sapiens), Q13485 (parent)
chain: MDNMSITNTPTSNDACLSIVHSLMCHRQGGESETFAKRAIESLVKKLKEKKDELDSLITAITTNGAHPSKCVTIQRTLDGRLQVAGRKGFPHVIYARLWRWPDLHKNELKHVKYCQYAFDLKCDSVCVNPYHYERVVSPGIDLSGLTLQSNAPSSMMVKDEYVHDFEGQPSLSTEGHSIQTIQHPPSNRASTETYSTPALLAPSESNATSTANFPNIPVASTSQPASILGGSHSEGLLQIASGPQPGQQQNGFTGQPATYHHNSTTTWTGSRTAPYTPNLPHHQNGHLQHHPPMPPHPGHYWPVHNELAFQPPISNHPAPEYWCSIAYFEMDVQVGETFKVPSSCPIVTVDGYVDPSGGDRFCLGQLSNVHRTEAIERARLHIGKGVQLECKGEGDVWVRCLSDHAVFVQSYYLDREAGRAPGDAVHKIYPSAYIKVFDLRQCHRQMQQQAATAQAAAAAQAAAVAGNIPGPGSVGGIAPAISLSAAAGIGVDDLRRLCILRMSFVKGWGPDYPRQSIKETPCWIEIHLHRALQLLDEVLHTMPIADPQPLD
partner: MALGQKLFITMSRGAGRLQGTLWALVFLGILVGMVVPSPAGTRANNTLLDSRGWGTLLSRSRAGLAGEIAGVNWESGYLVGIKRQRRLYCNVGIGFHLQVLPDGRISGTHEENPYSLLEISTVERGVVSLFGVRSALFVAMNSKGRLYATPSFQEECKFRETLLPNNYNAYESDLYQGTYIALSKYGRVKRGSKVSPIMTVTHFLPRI
B2: Mothers against decapentaplegic homolog 4 (Homo sapiens), Q13485 (parent)
chain: B1 chain
partner: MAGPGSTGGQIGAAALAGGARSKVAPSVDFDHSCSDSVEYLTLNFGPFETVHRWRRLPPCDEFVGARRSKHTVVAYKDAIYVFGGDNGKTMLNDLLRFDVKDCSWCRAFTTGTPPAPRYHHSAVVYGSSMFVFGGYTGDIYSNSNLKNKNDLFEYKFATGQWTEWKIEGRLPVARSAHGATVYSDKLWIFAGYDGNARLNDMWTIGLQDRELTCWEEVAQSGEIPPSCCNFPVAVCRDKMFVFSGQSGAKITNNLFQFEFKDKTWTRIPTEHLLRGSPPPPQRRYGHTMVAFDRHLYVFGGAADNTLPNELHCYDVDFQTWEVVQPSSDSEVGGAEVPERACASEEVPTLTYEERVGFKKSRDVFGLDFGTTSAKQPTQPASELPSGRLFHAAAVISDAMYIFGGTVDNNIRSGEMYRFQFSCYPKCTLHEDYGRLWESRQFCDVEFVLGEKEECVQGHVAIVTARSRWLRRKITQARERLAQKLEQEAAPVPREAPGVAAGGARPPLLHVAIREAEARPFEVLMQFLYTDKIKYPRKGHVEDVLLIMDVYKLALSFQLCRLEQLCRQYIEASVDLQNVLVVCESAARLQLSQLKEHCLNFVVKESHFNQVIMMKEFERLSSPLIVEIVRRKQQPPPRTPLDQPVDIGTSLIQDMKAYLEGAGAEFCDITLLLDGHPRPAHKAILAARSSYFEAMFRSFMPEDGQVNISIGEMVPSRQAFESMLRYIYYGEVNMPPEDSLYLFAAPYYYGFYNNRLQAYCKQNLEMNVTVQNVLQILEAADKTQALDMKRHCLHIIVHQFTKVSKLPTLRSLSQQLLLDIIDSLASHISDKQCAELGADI
B3: Mothers against decapentaplegic homolog 4 (Homo sapiens), Q13485 (parent)
chain: B1 chain
partner: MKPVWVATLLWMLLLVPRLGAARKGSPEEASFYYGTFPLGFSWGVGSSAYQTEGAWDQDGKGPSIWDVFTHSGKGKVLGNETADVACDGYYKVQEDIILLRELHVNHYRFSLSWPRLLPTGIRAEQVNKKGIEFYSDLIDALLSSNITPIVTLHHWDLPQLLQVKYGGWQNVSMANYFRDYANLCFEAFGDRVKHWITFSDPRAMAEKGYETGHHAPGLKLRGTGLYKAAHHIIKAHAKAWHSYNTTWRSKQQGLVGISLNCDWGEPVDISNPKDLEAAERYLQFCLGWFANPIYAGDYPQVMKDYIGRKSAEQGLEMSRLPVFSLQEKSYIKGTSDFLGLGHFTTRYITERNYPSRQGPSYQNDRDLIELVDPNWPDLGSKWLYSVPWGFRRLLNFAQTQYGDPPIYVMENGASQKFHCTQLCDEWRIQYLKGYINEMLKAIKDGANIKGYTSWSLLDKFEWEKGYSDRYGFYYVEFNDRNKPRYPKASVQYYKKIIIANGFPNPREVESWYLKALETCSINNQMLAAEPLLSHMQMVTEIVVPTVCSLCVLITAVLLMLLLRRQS
B4: Mothers against decapentaplegic homolog 4 (Homo sapiens), Q13485 (parent)
chain: B1 chain
partner: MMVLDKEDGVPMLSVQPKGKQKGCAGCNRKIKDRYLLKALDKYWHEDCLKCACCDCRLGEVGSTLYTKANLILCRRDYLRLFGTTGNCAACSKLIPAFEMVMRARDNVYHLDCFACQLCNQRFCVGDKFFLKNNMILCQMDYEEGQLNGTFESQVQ
B5: Mothers against decapentaplegic homolog 4 (Homo sapiens), Q13485 (parent)
chain: B1 chain
partner: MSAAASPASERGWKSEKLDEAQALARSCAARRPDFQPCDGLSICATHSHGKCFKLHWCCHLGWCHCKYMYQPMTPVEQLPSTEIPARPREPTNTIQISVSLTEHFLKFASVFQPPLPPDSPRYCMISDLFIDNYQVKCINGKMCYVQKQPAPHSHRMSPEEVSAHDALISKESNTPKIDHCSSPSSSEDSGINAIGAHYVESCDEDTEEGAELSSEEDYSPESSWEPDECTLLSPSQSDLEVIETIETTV
B6: Mothers against decapentaplegic homolog 4 (Homo sapiens), Q13485 (parent)
chain: B1 chain
partner: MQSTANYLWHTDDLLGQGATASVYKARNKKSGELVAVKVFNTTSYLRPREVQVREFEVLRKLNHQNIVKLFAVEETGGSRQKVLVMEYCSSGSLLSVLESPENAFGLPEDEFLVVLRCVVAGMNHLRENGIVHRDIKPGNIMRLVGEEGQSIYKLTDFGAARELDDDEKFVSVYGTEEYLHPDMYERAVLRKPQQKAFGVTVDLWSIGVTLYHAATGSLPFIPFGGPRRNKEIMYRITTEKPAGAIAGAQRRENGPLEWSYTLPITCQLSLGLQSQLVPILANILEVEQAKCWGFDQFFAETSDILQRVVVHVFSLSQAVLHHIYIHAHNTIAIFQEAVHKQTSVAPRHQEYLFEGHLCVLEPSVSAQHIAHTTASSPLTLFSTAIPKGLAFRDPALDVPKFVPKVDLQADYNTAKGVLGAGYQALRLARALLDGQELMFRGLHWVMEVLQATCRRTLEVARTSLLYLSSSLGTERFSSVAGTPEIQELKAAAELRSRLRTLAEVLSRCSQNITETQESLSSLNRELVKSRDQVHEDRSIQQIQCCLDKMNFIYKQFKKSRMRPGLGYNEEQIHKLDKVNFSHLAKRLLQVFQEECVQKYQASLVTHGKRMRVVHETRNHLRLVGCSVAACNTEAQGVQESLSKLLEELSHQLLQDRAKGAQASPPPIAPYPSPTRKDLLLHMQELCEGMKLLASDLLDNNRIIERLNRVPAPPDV
B7: Mothers against decapentaplegic homolog 4 (Homo sapiens), Q13485 (parent)
chain: B1 chain
partner: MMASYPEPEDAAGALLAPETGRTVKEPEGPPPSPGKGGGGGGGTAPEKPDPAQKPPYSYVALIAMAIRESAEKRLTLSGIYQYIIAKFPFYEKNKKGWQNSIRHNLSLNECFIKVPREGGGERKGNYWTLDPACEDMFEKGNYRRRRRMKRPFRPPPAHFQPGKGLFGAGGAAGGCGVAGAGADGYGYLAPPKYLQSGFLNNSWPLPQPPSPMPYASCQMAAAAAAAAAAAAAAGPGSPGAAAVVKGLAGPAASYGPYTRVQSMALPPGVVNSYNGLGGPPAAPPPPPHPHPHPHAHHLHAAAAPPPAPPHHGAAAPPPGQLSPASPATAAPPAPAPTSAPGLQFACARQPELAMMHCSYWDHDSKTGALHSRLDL

Variants of: B1
Conditions: with fgf6_human FGF6, P10767

Row | effect of a mutation on the interaction | Variant
1 | with no effect | R361C

Variants of: B1
Conditions: with fgf6_human FGF6, P10767
Remark: another data set of the same source

Row | effect of a mutation on the interaction | Variant
2 | with no effect | R361H

Variants of: B1
Conditions: with fgf6_human FGF6, P10767
Remark: another data set of the same source

Row | effect of a mutation on the interaction | Variant
3 | with no effect | D351H

Variants of: B1
Conditions: with fgf6_human FGF6, P10767
Remark: another data set of the same source

Row | effect of a mutation on the interaction | Variant
4 | with no effect | G386D

Variants of: B2
Conditions: with lztr1_human LZTR1, Q8N653

Row | effect of a mutation on the interaction | Variant
5 | with no effect | D351H

Variants of: B2
Conditions: with lztr1_human LZTR1, Q8N653
Remark: another data set of the same source

Row | effect of a mutation on the interaction | Variant
6 | with no effect | R361C

Variants of: B2
Conditions: with lztr1_human LZTR1, Q8N653
Remark: another data set of the same source

Row | effect of a mutation on the interaction | Variant
7 | decreasing interaction strength | R361C
8 | decreasing interaction strength | R361H

Variants of: B2
Conditions: with lztr1_human LZTR1, Q8N653
Remark: another data set of the same source

Row | effect of a mutation on the interaction | Variant
9 | with no effect | R361H

Variants of: B2
Conditions: with lztr1_human LZTR1, Q8N653
Remark: another data set of the same source

Row | effect of a mutation on the interaction | Variant
10 | with no effect | G386D

Variants of: B3
Conditions: with lctl_human LCTL

Row | effect of a mutation on the interaction | Variant
11 | with no effect | D351H

Variants of: B3
Conditions: with lctl_human LCTL
Remark: another data set of the same source

Row | effect of a mutation on the interaction | Variant
12 | with no effect | G386D

Variants of: B4
Conditions: with rbtn1_human LMO1, P25800

Row | effect of a mutation on the interaction | Variant
13 | with no effect | R361H

Variants of: B4
Conditions: with rbtn1_human LMO1, P25800
Remark: another data set of the same source

Row | effect of a mutation on the interaction | Variant
14 | with no effect | R361C

Variants of: B4
Conditions: with rbtn1_human LMO1, P25800
Remark: another data set of the same source

Row | effect of a mutation on the interaction | Variant
15 | with no effect | G386D

Variants of: B4
Conditions: with rbtn1_human LMO1, P25800
Remark: another data set of the same source

Row | effect of a mutation on the interaction | Variant
16 | with no effect | D351H

Variants of: B5
Conditions: with cc070_human C3orf70, A6NLC5

Row | effect of a mutation on the interaction | Variant
17 | with no effect | D351H

Variants of: B5
Conditions: with cc070_human C3orf70, A6NLC5
Remark: another data set of the same source

Row | effect of a mutation on the interaction | Variant
18 | with no effect | G386D

Variants of: B5
Conditions: with cc070_human C3orf70, A6NLC5
Remark: another data set of the same source

Row | effect of a mutation on the interaction | Variant
19 | with no effect | R361C

Variants of: B5
Conditions: with cc070_human C3orf70, A6NLC5
Remark: another data set of the same source

Row | effect of a mutation on the interaction | Variant
20 | with no effect | R361H

Variants of: B6
Conditions: with ikke_human IKBKE

Row | effect of a mutation on the interaction | Variant
21 | with no effect | D351H

Variants of: B6
Conditions: with ikke_human IKBKE
Remark: another data set of the same source

Row | effect of a mutation on the interaction | Variant
22 | with no effect | G386D

Variants of: B7
Conditions: with foxl2_human FOXL2, P58012

Row | effect of a mutation on the interaction | Variant
23 | with no effect | R361H
